± gives the standard deviation of the averaged measurements.
Tests used:
Saccharomyces cerevisiae [1] = assay: protein stability index of tFT-peptide fusion (C-terminal peptide) (PSI (0-1 scale)); higher = more stable (slower turnover)
Method: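 MPS profiling in S. cerevisiae of the tFT-X12 degron library: putative degron peptides plus stable controls, 12 aa, fused to the C-terminus of a sfGFP-mCherry timer. Cells are FACS-sorted into 8 mCherry/sfGFP bins and deep-sequenced. PSI runs from 0 (unstable) to 1 (stable). Backgrounds are wild type, das1Δ and doa10Δ at 30 °C, and wild type, das1Δ, cdc34-1 and cdc53-1 at 37 °C; 2-3 technical replicates each.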

Saccharomyces cerevisiae [2] = assay: as above; conditions: genetic background: wild type; temperature: 30 C
[3] = genetic background: cdc34-1, temperature: 37 C
[4] = genetic background: cdc53-1, temperature: 37 C
[5] = genetic background: das1 deletion, temperature: 30 C
[6] = genetic background: das1 deletion, temperature: 37 C
[7] = genetic background: doa10 deletion, temperature: 30 C
[8] = genetic background: wild type, temperature: 30 C
[9] = genetic background: wild type, temperature: 37 C
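Note: PSI is a weighted mean of sequencing reads over stability bins, variants kept only with over 10 reads, mCherry proximal and sfGFP distal, peptide attached via GGGS linker.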

Row | Sequence | protein stability index (Saccharomyces cerevisiae [1]; [3]) | protein stability index (Saccharomyces cerevisiae [1]; [4]) | protein stability index (Saccharomyces cerevisiae [1]; [5]) | protein stability index (Saccharomyces cerevisiae [1]; [6]) | protein stability index (Saccharomyces cerevisiae [1]; [7]) | protein stability index (Saccharomyces cerevisiae [1]; [8]) | protein stability index (Saccharomyces cerevisiae [1]; [9]) | protein stability index (Saccharomyces cerevisiae [2])
1 | LVFFLFFFRCFS | 0.506 ± 0.059 | 0.514 ± 0.016 | 0.37 ± 0.049 | 0.534 ± 0.014 | 0.3734 ± 0.0018 | 0.36 ± 0.033 | 0.488 ± 0.0042 | 0.449 ± 0.035
2 | LVFGFSLILRVG | 0.168 ± 0.025 | 0.203 ± 0.0096 | 0.272 ± 0.054 | 0.356 ± 0.016 | 0.139 ± 0.016 | 0.128 ± 0.0069 | 0.234 ± 0.018 | 0.2132 ± 0.00073
3 | LVRDEVLKVKLV | 0.6432 ± 0.004 | 0.718 ± 0.011 | 0.643 ± 0.018 | 0.722 ± 0.013 | 0.138 ± 0.0093 | 0.17 ± 0.021 | 0.244 ± 0.0095 | 0.297 ± 0.014
4 | LVRGSRLIVIVG | 0.444 ± 0.01 | 0.473 ± 0.028 | 0.333 ± 0.025 | 0.5181 ± 0.0045 | 0.289 ± 0.0053 | 0.328 ± 0.034 | 0.492 ± 0.019 | 0.423 ± 0.026
5 | LYTFCSMDANPM | 0.397 ± 0.019 | 0.439 ± 0.011 | 0.439 ± 0.019 | 0.383 ± 0.033 | 0.488 ± 0.028 | 0.468 ± 0.0092 | 0.407 ± 0.04 | 0.4016 ± 0.0012
6 | MALAVRVVYCGA | 0.349 ± 0.015 | 0.391 ± 0.01 | 0.293 ± 0.023 | 0.4395 ± 0.0024 | 0.234 ± 0.011 | 0.283 ± 0.027 | 0.415 ± 0.021 | 0.378 ± 0.0028
7 | MFTIYISFVFAF | 0.197 ± 0.0067 | 0.277 ± 0.0087 | 0.195 ± 0.029 | 0.3305 ± 0.00089 | 0.179 ± 0.017 | 0.214 ± 0.0098 | 0.2844 ± 0.0023 | 0.269 ± 0.039
8 | MSQVRYQRATRA | 0.657 ± 0.074 | 0.676 ± 0.044 | 0.608 ± 0.0071 | 0.692 ± 0.0087 | 0.526 ± 0.021 | 0.535 ± 0.023 | 0.648 ± 0.011 | 0.54 ± 0.067
9 | NDKGKKTKIKIV | 0.659 ± 0.025 | 0.72 ± 0.057 | 0.64 ± 0.067 | 0.7368 ± 0.0053 | 0.187 ± 0.011 | 0.185 ± 0.024 | 0.343 ± 0.029 | 0.254 ± 0.058
10 | NENQIKVIMLLV | 0.4964 ± 0.0021 | 0.572 ± 0.092 | 0.344 ± 0.052 | 0.555 ± 0.0077 | 0.153 ± 0.0095 | 0.196 ± 0.04 | 0.268 ± 0.011 | 0.266 ± 0.011
11 | NRFRLFRLNFSV | 0.68 ± 0.042 | 0.724 ± 0.052 | 0.606 ± 0.02 | 0.751 ± 0.014 | 0.161 ± 0.0037 | 0.168 ± 0.024 | 0.36 ± 0.049 | 0.302 ± 0.015
12 | PATPPLRFPPSA | 0.702 ± 0.032 | 0.7349 ± 0.0039 | 0.648 ± 0.01 | 0.7356 ± 0.0028 | 0.67 ± 0.033 | 0.668 ± 0.012 | 0.7075 ± 0.0036 | 0.409 ± 0.0081
13 | PCTFYLFWMFFV | 0.4168 ± 0.0038 | 0.565 ± 0.042 | 0.43 ± 0.018 | 0.6011 ± 0.0014 | 0.223 ± 0.011 | 0.228 ± 0.021 | 0.328 ± 0.0081 | 0.3041 ± 0.002
14 | PFGPTFSPRPFR | 0.727 ± 0.048 | 0.767 ± 0.011 | 0.684 ± 0.015 | 0.7793 ± 0.0072 | 0.692 ± 0.023 | 0.701 ± 0.013 | 0.747 ± 0.0083 | 0.773 ± 0.022
15 | PFLSLPFLFPSS | 0.715 ± 0.026 | 0.769 ± 0.012 | 0.684 ± 0.0075 | 0.7675 ± 0.0052 | 0.687 ± 0.027 | 0.696 ± 0.027 | 0.757 ± 0.016 | 0.531 ± 0.14
16 | PFSLCFVFPFFF | 0.52 ± 0.021 | 0.5891 ± 0.0011 | 0.567 ± 0.035 | 0.6329 ± 0.0063 | 0.143 ± 0.0063 | 0.174 ± 0.0044 | 0.28 ± 0.0092 | 0.187 ± 0.0097
17 | PGWALLQLVFLK | 0.363 ± 0.004 | 0.298 ± 0.039 | 0.346 ± 0.032 | 0.4845 ± 0.0029 | 0.496 ± 0.035 | 0.353 ± 0.021 | 0.464 ± 0.011 | 0.456 ± 0.012
18 | PHHSPPTGPPND | 0.673 ± 0.011 | 0.737 ± 0.018 | 0.648 ± 0.008 | 0.7171 ± 0.0041 | 0.663 ± 0.014 | 0.658 ± 0.007 | 0.705 ± 0.0085 | 0.687 ± 0.022
19 | PLHPSSTPATPF | 0.69 ± 0.03 | 0.741 ± 0.0032 | 0.667 ± 0.023 | 0.745 ± 0.023 | 0.677 ± 0.026 | 0.6834 ± 0.0044 | 0.722 ± 0.02 | 0.732 ± 0.034
20 | PLLPPLSTPPPA | 0.69 ± 0.0086 | 0.732 ± 0.023 | 0.663 ± 0.015 | 0.739 ± 0.011 | 0.669 ± 0.022 | 0.677 ± 0.013 | 0.6983 ± 0.0039 | 0.385 ± 0.062
21 | PLPSRAPVQFLL | 0.624 ± 0.012 | 0.754 ± 0.017 | 0.643 ± 0.029 | 0.727 ± 0.0097 | 0.1719 ± 0.0011 | 0.199 ± 0.019 | 0.3725 ± 0.00074 | 0.319 ± 0.021
22 | PLRLRCASLFAN | 0.62 ± 0.021 | 0.692 ± 0.0095 | 0.618 ± 0.034 | 0.737 ± 0.04 | 0.304 ± 0.018 | 0.362 ± 0.019 | 0.5647 ± 0.002 | 0.498 ± 0.086
23 | PLVLPPINLFLV | 0.575 ± 0.071 | 0.729 ± 0.025 | 0.63 ± 0.017 | 0.7373 ± 0.0008 | 0.0842 ± 0.029 | 0.114 ± 0.019 | 0.136 ± 0.021 | 0.189 ± 0.0031
24 | PPLPPPPPHPPP | 0.458 ± 0.045 | 0.52 ± 0.019 | 0.477 ± 0.0095 | 0.521 ± 0.023 | 0.501 ± 0.017 | 0.493 ± 0.04 | 0.4959 ± 0.0011 | 0.488 ± 0.016
25 | PPPLLVRPWFLV | 0.618 ± 0.054 | 0.725 ± 0.013 | 0.612 ± 0.029 | 0.741 ± 0.024 | 0.147 ± 0.018 | 0.157 ± 0.019 | 0.269 ± 0.02 | 0.214 ± 0.05
26 | PPPPHSAPLFLS | 0.604 ± 0.007 | 0.697 ± 0.011 | 0.651 ± 0.019 | 0.694 ± 0.011 | 0.227 ± 0.0096 | 0.261 ± 0.032 | 0.458 ± 0.011 | 0.37 ± 0.0087
27 | PPPPLFLIVLHL | 0.5196 ± 0.0015 | 0.621 ± 0.031 | 0.465 ± 0.03 | 0.642 ± 0.012 | 0.4109 ± 0.0026 | 0.401 ± 0.026 | 0.593 ± 0.023 | 0.434 ± 0.033
28 | PPPPPLAIPHPT | 0.655 ± 0.037 | 0.709 ± 0.013 | 0.661 ± 0.04 | 0.684 ± 0.024 | 0.639 ± 0.011 | 0.674 ± 0.031 | 0.7141 ± 0.0041 | 0.7255 ± 0.0042
29 | PPPPPPLPSPSS | 0.664 ± 0.038 | 0.742 ± 0.024 | 0.64 ± 0.021 | 0.754 ± 0.012 | 0.659 ± 0.015 | 0.68 ± 0.023 | 0.699 ± 0.019 | 0.35 ± 0.0078
30 | PPPPPSRPFSPP | 0.698 ± 0.042 | 0.7412 ± 0.0017 | 0.687 ± 0.0079 | 0.71 ± 0.024 | 0.689 ± 0.0074 | 0.6544 ± 0.0037 | 0.709 ± 0.013 | 0.502 ± 0.015

From the supplement of paper PMC10724198
